These results are taken from PMC7166090, “A bacteriophage mimic of the bacterial nucleoid-associated protein Fis” (Biochemical Journal, 2020).

The target in data set [1] is T1, His-NinH K35A (Bacteriophage lambda (cI857 Sam7), UniProt P03771 1-68, A15T;K35A).
T1 sequence: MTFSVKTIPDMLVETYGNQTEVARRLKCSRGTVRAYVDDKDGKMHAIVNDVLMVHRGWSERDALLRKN
As to the kind of experiment: AUC; sedimentation velocity, ~0.6 mg/ml protein, 4°C, 50 000 rpm, scans at 260 and 280 nm, SEDFIT.

The target of data set [2] is His-NinH S29A R30A (bacteriophage λ) (UniProt P03771). Described as above.
Data set [3] addresses T2, His-NinH N18A (Bacteriophage lambda (cI857 Sam7), UniProt P03771 1-68, A15T;N18A).
T2 sequence: T1 sequence with N18A, A35K
Described as above.

Data set [4] addresses T3, His-NinH T32A (Bacteriophage lambda (cI857 Sam7), UniProt P03771 1-68, A15T;T32A).
T3 sequence: T1 sequence with T32A, A35K
The description is as above.

The target of data set [5] is His-NinH R30A (bacteriophage λ) (UniProt P03771). The description is as above.
For data set [6], the target named is T4, His-NinH S29A (Bacteriophage lambda (cI857 Sam7), UniProt P03771 1-68, A15T;S29A).
T4 sequence: T1 sequence with S29A, A35K
The data set is described as above.

The target in data set [7] is T5, His-NinH R56A (Bacteriophage lambda (cI857 Sam7), UniProt P03771 1-68, A15T;R56A).
T5 sequence: T1 sequence with A35K, R56A
The description is as above.

Data set [8] concerns the target T6, His-NinH wt (Bacteriophage lambda (cI857 Sam7), UniProt P03771 1-68, A15T).
T6 sequence: T1 sequence with A35K
As to the kind of experiment: EMSA; two complexes; MST: PBS pH 7.4 + 0.05% Tween-20, 22 C; anisotropy: 6.7 mM Tris-HCl pH 8.0, 3.3 nM (so in the source) sodium acetate, 2 mM EDTA, 25 C; EMSA (32P): 50 mM Tris-HCl pH 8.0, 5 mM EDTA, 1 mM DTT, 5% glycerol, 100 ug/ml BSA, on ice; EMSA (Cy520): PBS pH 7.4, room temp. To be noted: protein: recombinant; tags: N-His6; chain copies: 2; label: 5'-32P on strand 1; blunt. A general note: A gel shift assay detects complexes by their altered migration in electrophoresis.

Data set [9] has as its target T6, His-NinH wt. As to the kind of experiment: EMSA; single complex; MST: PBS pH 7.4 + 0.05% Tween-20, 22 C; anisotropy: 6.7 mM Tris-HCl pH 8.0, 3.3 nM (so in the source) sodium acetate, 2 mM EDTA, 25 C; EMSA (32P): 50 mM Tris-HCl pH 8.0, 5 mM EDTA, 1 mM DTT, 5% glycerol, 100 ug/ml BSA, on ice; EMSA (Cy520): PBS pH 7.4, room temp. To be noted: protein: recombinant; tags: N-His6; chain copies: 2; label: 5'-32P on strand 1; fork 1:2, 31 bp duplex.

The target of data set [10] is T7, NinH (native, untagged) (Bacteriophage lambda (cI857 Sam7), UniProt P03771 1-68, A15T).
T7 sequence: T1 sequence with A35K
As to the kind of experiment: EMSA; two complexes; MST: PBS pH 7.4 + 0.05% Tween-20, 22 C; anisotropy: 6.7 mM Tris-HCl pH 8.0, 3.3 nM (so in the source) sodium acetate, 2 mM EDTA, 25 C; EMSA (32P): 50 mM Tris-HCl pH 8.0, 5 mM EDTA, 1 mM DTT, 5% glycerol, 100 ug/ml BSA, on ice; EMSA (Cy520): PBS pH 7.4, room temp. Conditions: protein: recombinant; tags: none; chain copies: 2; label: 5'-32P on strand 1; blunt.

Data set [11] has as its target T7, NinH (native, untagged). As to the kind of experiment: EMSA; affinity similar to DS60, more second complex; MST: PBS pH 7.4 + 0.05% Tween-20, 22 C; anisotropy: 6.7 mM Tris-HCl pH 8.0, 3.3 nM (so in the source) sodium acetate, 2 mM EDTA, 25 C; EMSA (32P): 50 mM Tris-HCl pH 8.0, 5 mM EDTA, 1 mM DTT, 5% glycerol, 100 ug/ml BSA, on ice; EMSA (Cy520): PBS pH 7.4, room temp. To be noted: protein: recombinant, tags: none, chain copies: 2, label: 5'-32P on strand 1.

The target in data set [12] is T7, NinH (native, untagged). As to the kind of experiment: EMSA; similar to DS60; MST: PBS pH 7.4 + 0.05% Tween-20, 22 C; anisotropy: 6.7 mM Tris-HCl pH 8.0, 3.3 nM (so in the source) sodium acetate, 2 mM EDTA, 25 C; EMSA (32P): 50 mM Tris-HCl pH 8.0, 5 mM EDTA, 1 mM DTT, 5% glycerol, 100 ug/ml BSA, on ice; EMSA (Cy520): PBS pH 7.4, room temp. Conditions: protein: recombinant, tags: none, chain copies: 2, label: 5'-32P on strand 1.

Data set [13] deals with the molecule itself. As to the kind of experiment: SAXS; His-NinH in solution at 4 mg/ml, Xeuss 2.0 laboratory SAXS system.
Data set [14] deals with T7, NinH (native, untagged). As to the kind of experiment: fluorescence anisotropy; Hill 2.23; dimer concentration; MST: PBS pH 7.4 + 0.05% Tween-20, 22 C; anisotropy: 6.7 mM Tris-HCl pH 8.0, 3.3 nM (so in the source) sodium acetate, 2 mM EDTA, 25 C; EMSA (32P): 50 mM Tris-HCl pH 8.0, 5 mM EDTA, 1 mM DTT, 5% glycerol, 100 ug/ml BSA, on ice; EMSA (Cy520): PBS pH 7.4, room temp. To be noted: protein: recombinant; tags: none; chain copies: 2; label: 3'-fluorescein (C6 linker) on strand 1; blunt. (In general: Fluorescence polarisation rises when a labelled molecule tumbles more slowly, as on binding a larger partner.)

Data set [15] deals with T6, His-NinH wt. As to the kind of experiment: fluorescence anisotropy; Hill 1.985; dimer concentration; MST: PBS pH 7.4 + 0.05% Tween-20, 22 C; anisotropy: 6.7 mM Tris-HCl pH 8.0, 3.3 nM (so in the source) sodium acetate, 2 mM EDTA, 25 C; EMSA (32P): 50 mM Tris-HCl pH 8.0, 5 mM EDTA, 1 mM DTT, 5% glycerol, 100 ug/ml BSA, on ice; EMSA (Cy520): PBS pH 7.4, room temp. Conditions: protein: recombinant; tags: N-His6; chain copies: 2; label: 3'-fluorescein (C6 linker) on strand 1; blunt.

Numbering of substitutions follows the chain as printed.

Turning to “His-NinH K35A (from UniProt P03771 1-68) (natural protein)”, the stoichiometry N (as a rule, a count of units in the complex or per binding partner) in data set [1] turned out to be 2.

On to “His-NinH S29A R30A (from UniProt P03771 1-68) (natural protein)”, for which the stoichiometry N in [2] stood at 2.

On to “His-NinH N18A (from UniProt P03771 1-68) (natural protein)”, for which the stoichiometry N in [3] was 2.

Turning to “His-NinH T32A (from UniProt P03771 1-68) (natural protein)”, the stoichiometry N in data set [4] came out at 2.

As to “His-NinH R30A (from UniProt P03771 1-68) (natural protein)”, the stoichiometry N in data set [5] came out at 2.

For “His-NinH S29A (from UniProt P03771 1-68) (natural protein)”, the stoichiometry N in [6] came to 2.

In the case of “His-NinH R56A (from UniProt P03771 1-68) (natural protein)”, the stoichiometry N in data set [7] stood at 2.

B1: DS50 (dsDNA)
DNA 1: GGCGACGTGATCACCAGATGATTGCTAGGCATGCTTTCCGCAAGAGAAGC
DNA 2: GCTTCTCTTGCGGAAAGCATGCCTAGCAATCATCTGGTGATCACGTCGCC
With B1, the binding result in [8] was “binds”.

B2: Forked duplex FD (structured_DNA)
DNA 1: B1 DNA 1
DNA 2: GGCTTCTCTTGCGGAAAGCATGCCTAGCAATCCTGTCAGCTGCATGGAAC
On to B2, for which the binding result in data set [9] is on record as “binds”.

B3: DS60 (dsDNA)
DNA 1: TTTGGTCTAACTTTACCGCTACTAAATGCCGCGGATTGGTTTCGCTGAATCAGGTTATTA
DNA 2: TAATAACCTGATTCAGCGAAACCAATCCGCGGCATTTAGTAGCGGTAAAGTTAGACCAAA
For the molecule B3, the binding result in [10] is on record as “binds”.

B4: BT2 (dsDNA)
DNA 1: B3 DNA 1
DNA 2: TAATAACCTGATTCAGCGAAACCAATCCAAGCGGCATTTAGTAGCGGTAAAGTTAGACCAAA
Regarding B4, in data set [11] (2 extra A bulge in strand 2), the binding result was “binds”.

B5: BB5 (dsDNA)
DNA 1: B3 DNA 1
DNA 2: B3 DNA 2 with C28G, G29C, C30A, G31A, G32C
As for B5, the binding result in [12] (central 5 nt bubble) is given as “binds”.

B6: BB1 (dsDNA)
DNA 1: B3 DNA 1
DNA 2: B3 DNA 2 with C28G
For B6, in data set [12] (central 1 nt mismatch), the binding result is recorded as “binds”.

B7: BT1 (dsDNA)
DNA 1: B3 DNA 1
DNA 2: TAATAACCTGATTCAGCGAAACCAATCCAGCGGCATTTAGTAGCGGTAAAGTTAGACCAAA
Take B7: the binding result in data set [11] (1 extra A bulge in strand 2) is given as “binds”.

B8: BB13 (dsDNA)
DNA 1: B3 DNA 1
DNA 2: TAATAACCTGATTCAGCGAAACATTGTAGGTAAGCTTAGTAGCGGTAAAGTTAGACCAAA
Take B8: the binding result in data set [12] (central 13 nt bubble) is given as “binds”.

B9: BB20 (dsDNA)
DNA 1: B3 DNA 1
DNA 2: TAATAACCTGATTCAGCGAATGACCGATAACGTCCACTTGAGCGGTAAAGTTAGACCAAA
Turning to B9, in data set [12] (central 20 nt bubble), the binding result is given as “binds”.

B10: BT3 (dsDNA)
DNA 1: B3 DNA 1
DNA 2: TAATAACCTGATTCAGCGAAACCAATCCAAAGCGGCATTTAGTAGCGGTAAAGTTAGACCAAA
With B10, in [11] (3 extra A bulge in strand 2), the binding result is on record as “binds”.

B11: N-His6-NinH (bacteriophage λ NinH, wild type) (natural protein)
chain: T1 sequence with T15A, A35K
Regarding B11, the “stoichiometry N” value in data set [13] stood at 2.

B12: DS20 (o-FLU20/o-SS20) (dsDNA)
DNA 1: TGGGTCAACGTGGGCAAAGA
DNA 2: TCTTTGCCCACGTTGACCCA
In the case of B12, the Kd – broadly, a measure of binding affinity in units of concentration – is about 57 nM in [14] and 43 nM in data set [15].
